Consider 32 molecules from PMC5165034 (Frontiers in Immunology, 2016).

Substitutions are numbered along the chain they refer to.

B1: 2D1 (VHH)
VHH: EVQLVESGGGLVKPGGSLRLSCAASGFTFSDYYMSWIRQAPGKGLEWVSYISSSGSTIYYADSVRGRFTISRDNAKDSLYLQMNSLRAEDTAVYYCARRRSLTVGAPTYWGQGTLVTVSS
B2: 2E2 (VHH)
VHH: B1 VHH with A23E, R65K
B3: 2B3 (VHH)
VHH: B1 VHH with T57I, R65K
B4: 4D3 (VHH)
VHH: B1 VHH with I58L
B5: 3C8 (VHH)
VHH: EVQLLESGGGLVQPGGSLRLSCAASGFTFSSYAMSWVRQAPGKGLEWVSAITGSGSSTYYADSVKGRFTISRDNSKNTLYLQMNSLRAEDTAVYYCAKDRPYGSGSYKYGMDVGGQGTTVTVSS
B6: 6F7 (VHH)
VHH: EVQLVESGGGLVKPGGSLRLSCAASGFTFSDYYMSWIRQAPGKGLEWVSYISSSGRTIYYADSVKGRFTISRDNAKNSLYLQMNSLRAEDTAVYYCARGGIAVAGTTRHYSDYWGQGTLVTVSS
B7: 1D8 (VHH)
VHH: EVQLVESGGGLVKPGGSLRLSCAASGFTFSDYYMSWIRQAPGKGLEWVSYISSSGSTIYYADSVKGRFTISRDNAKNSLYLQMNSLRAEDTAVYYCARGPPFDYWGQGTLVTVSS
B8: 2B5 (VHH)
VHH: EVQLVESGGGLVKPGGSLRLSCAASGFTFSDYYMTWIRQTPGKGLEWVSYISDDNNTIYYADSVKGRFTISRDNAKNSLYLQMNSLRAEDTAVYYCARDGYFGELPGFDYWGQGTLVTVSS
B9: 4G9 (VHH)
VHH: EVQLLESGGGLVQRGGSLRLSCAASGFTFSSYAMSWVRQAPGKGLEWVSAISGSGGSTHYADSVKGRFTISRDNSKNTLYLQMNSLRAEDTAVYYCAKKGDRGYFFDYWGQGTLVTVSS
B10: 1B1 (VHH)
VHH: EVQLVESGGGLVKSGGSLRLSCAASGFTFSDYYMSWIRQAPGKGLEWVSYISSSGSTIYYADSVKGRFTISRDNAKNSLYLQMNSLRAEDTAVYYCARGISMARDYWGQGTLVTVSS
B11: 1F1 (VHH)
VHH: B10 VHH with S14P, I100V, S101K, M102L, A103T, R104E, Y106N
B12: 1D10 (VHH)
VHH: B10 VHH with S14P, S54G, S56D, A103T, R104G, T114N
B13: 1C9 (VHH)
VHH: B10 VHH with S14P, R98K, M102T, A103T, R104G, T111A, T114S
B14: 1C8 (VHH)
VHH: B10 VHH with S14P, A103V, R104G, Y106N
B15: 1H4 (VHH)
VHH: B10 VHH with S14P, S101A, A103V, R104E, Y106S
B16: 1A7 (VHH)
VHH: B10 VHH with S14P, A103T, R104G, T114N
B17: 4D7 (VHH)
VHH: B10 VHH with S7F, S14P, T57N, S71T, A103T, R104G, L112Q
B18: 4E8 (VHH)
VHH: B10 VHH with S14P, M102L, A103T, R104G
B19: 1F10 (VHH)
VHH: B10 VHH with S14P, N84S, M102L, A103T, R104G, D105T, Y106D
B20: 1F12 (VHH)
VHH: B10 VHH with S14P, T57N, S101A, M102V, R104E, Y106V, L112T
B21: 1C4 (VHH)
VHH: B10 VHH with S14P, R104G, Y106S
B22: 7H12 (VHH)
VHH: B10 VHH with S14P, A103V, R104G
B23: 4H7 (VHH)
VHH: B10 VHH with S14P, M102V, A103T, R104G, Y106S
B24: 1H11 (VHH)
VHH: B10 VHH with S14P, Q39R, T57N, A61V, S101A, A103T, R104G, L112Q, S116T
B25: 3A5 (VHH)
VHH: EVQLVESGGGLVKPGGSLRLSCAASGFIFSDYYMSWIRQAPGKGLEWISYISSSGDSIYYADSVKGRFTISRDDAKNSLSLQMNSLRAEDTAVYYCARGWFGESHYSDFWGQGTLVTVSS
B26: 4A12 (VHH)
VHH: EVQLVESGGGLVKPGGSLRLSCAASGFTFSDYYMSWIRQAPGKGLEWVSYISSSGNTIYYADSVKGRFTISRDNAKNSLYLQMNSLRAEDTAVYYCARDRLGMVRPLHYWGQGTLVTVSS
B27: 2F5 (VHH)
VHH: B26 VHH with G10D, K13E, S53G
B28: 3A6 (VHH)
VHH: B26 VHH with S53G, V104D
B29: 4F5 (VHH)
VHH: B1 VHH with R65K, D77N
B30: 2E6 (VHH)
VHH: B26 VHH with S53G
B31: 3B8 (VHH)
VHH: B26 VHH with S53G, K65R, V93L, L101A, P106G, L107P
B32: 4F9 (VHH)
VHH: EVQLVESGGGLVKPGGSLRLSCAASGFTFSDYYMSWIRQAPGKGLEWVSYISSSGSTIYYADSVKGRFTISRDNAKNSLYLQMNSLRAEDTAVYYCARDLVGATDFDYWGQGTLVTVSS

The target in the test is influenza virus X-31 hemagglutinin (HA) (Influenza A virus X-31 (H3N2; HA of …, UniProt P03437, strain).
For B1, the binding result is recorded as “binds”. Take B2: the binding result is “binds”. Next, B3: “binds”; B4: “binds”; B5: “binds”. Turning to B6, the binding result was “binds”. Turning to B7, the binding result is listed as “binds”. Next, B8: “binds”.

For the molecule B9, the binding result is on record as “binds”.

Consider B10, for which the binding result is given as “binds”. Next, B11: “binds”; B12: “binds”; B13: “binds”. Consider B14, for which the binding result is given as “binds”. Regarding B15, the binding result is “binds”. Next, B16: “binds”.

For the molecule B17, the binding result was “binds”.

Consider B18, for which the binding result is “binds”. For B19, the binding result was “binds”. As for B20, the entry is “binds”.

Take B21: the binding result was “binds”. As for B22, the binding result is listed as “binds”. In the case of B23, the binding result was “binds”.

As for B24, the binding result is listed as “binds”.

As for B25, the binding result is given as “binds”.

In the case of B26, the binding result is on record as “binds”. As for B27, the binding result was “binds”. B28: the binding result is listed as “binds”. With B29, the binding result is given as “binds”.

Turning to B30, the binding result is listed as “binds”. As for B31, the entry is “binds”.

Consider B32, for which the binding result is “binds”.
